Read-outs that look alike come from different tables or passages of the source.

The source of these data is US20210130452A1 (Merck KGaA, published 2021).

For assay [1], the target named is T1, mouse IL-17A (mouse, UniProt Q62386 26-158).
T1 sequence (looked up): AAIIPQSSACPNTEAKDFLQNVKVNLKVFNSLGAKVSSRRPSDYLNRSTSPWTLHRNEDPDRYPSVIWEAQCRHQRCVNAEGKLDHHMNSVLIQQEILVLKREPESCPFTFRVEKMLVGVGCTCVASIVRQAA
As to the kind of experiment: binding ELISA. On the technique in general: In an ELISA, binding on a coated surface is turned into a signal by an enzyme label.
Protocol: (§1) Binding of a selected panel of anti-IL-17 Nanobodies to IL-17 of other species was assessed using a binding ELISA. […] HRP (horseradish peroxidase) conjugated anti-myc (Serotec, MCA 2200P) was used for detection using esTMB as substrate.

In assay [2] the target is T2, rat IL-17A (rat, UniProt Q61453 18-150, limits assumed).
T2 construct: made in E. coli, bought
T2 sequence (looked up): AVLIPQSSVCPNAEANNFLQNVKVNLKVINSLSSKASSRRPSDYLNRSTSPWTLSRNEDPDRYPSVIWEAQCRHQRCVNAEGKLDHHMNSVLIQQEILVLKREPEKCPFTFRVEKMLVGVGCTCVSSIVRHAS
The experiment in a line: binding ELISA.
Protocol: as §1

In assay [3] the target is T3, human IL-17B (human, UniProt Q9UHF5 21-180).
T3 construct: expressed in E. coli; also called hIL-17B
T3 sequence (looked up): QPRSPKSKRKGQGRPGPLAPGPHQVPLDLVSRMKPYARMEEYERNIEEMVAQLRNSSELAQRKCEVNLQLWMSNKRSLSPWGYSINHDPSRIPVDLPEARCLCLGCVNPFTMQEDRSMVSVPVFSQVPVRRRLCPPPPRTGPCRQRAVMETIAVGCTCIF
The experiment in a line: SPR, cytokine on chip.
Description: (§2) Human IL-17B, IL-17C, IL-17D or IL-17E were all expressed in E. coli, and covalently bound to a CM sensor chip surface via amine coupling using EDC/NHS for activation and HCl for deactivation.
(§3) Next, binding buffer was sent over the chip at the same flow rate to allow spontaneous dissociation of bound Nanobody or antibody.

The target of assay [4] is T4, human IL-17C (human, UniProt Q9P0M4 19-197).
T4 construct: expressed in E. coli; also called hIL-17C
T4 sequence (looked up): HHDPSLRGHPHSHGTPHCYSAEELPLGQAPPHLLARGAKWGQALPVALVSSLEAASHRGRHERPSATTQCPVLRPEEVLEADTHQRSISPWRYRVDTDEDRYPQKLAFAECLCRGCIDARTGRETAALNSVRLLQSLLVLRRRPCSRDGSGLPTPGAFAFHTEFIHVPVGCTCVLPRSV
The experiment in a line: SPR, cytokine on chip.
Description: as §2, §3

The target of assay [5] is T5, human IL-17D (human, UniProt Q8TAD2 18-202, limits assumed).
T5 construct: expressed in E. coli; also called hIL-17D
T5 sequence (looked up): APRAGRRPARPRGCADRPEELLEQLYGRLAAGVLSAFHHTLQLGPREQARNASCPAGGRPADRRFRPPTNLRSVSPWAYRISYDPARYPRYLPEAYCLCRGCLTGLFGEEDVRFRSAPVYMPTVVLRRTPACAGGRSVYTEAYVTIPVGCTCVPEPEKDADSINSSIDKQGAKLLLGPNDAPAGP
As to the kind of experiment: SPR, cytokine on chip. (In SPR one partner is held on a chip, and binding of the other changes the refractive index at the surface.)
Description: as §2, §3

In assay [6] the target is T6, human IL-17E (human, UniProt Q9H293 33-177).
T6 construct: expressed in E. coli; also called hIL-17E
T6 sequence (looked up): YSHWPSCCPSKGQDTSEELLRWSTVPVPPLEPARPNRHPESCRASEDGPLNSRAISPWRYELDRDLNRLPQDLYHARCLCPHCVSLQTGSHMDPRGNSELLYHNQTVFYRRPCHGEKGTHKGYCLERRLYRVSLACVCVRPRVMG
As to the kind of experiment: SPR, cytokine on chip.
Description: as §2, §3

For assay [7], the target named is T7, human IL-17A (human, UniProt Q16552 24-155).
T7 construct: secreted form made in Hek293 cells (GenBank U32659); also called hIL-17A; hIL17A
T7 sequence (Q16552 other isoform, or with tags, fused parts or gaps): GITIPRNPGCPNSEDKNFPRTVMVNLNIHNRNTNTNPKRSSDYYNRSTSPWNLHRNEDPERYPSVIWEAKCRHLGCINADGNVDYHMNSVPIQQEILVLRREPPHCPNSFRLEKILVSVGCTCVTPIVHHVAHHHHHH
The experiment in a line: SPR (Biacore) off-rate.

In assay [8] the target is T8, human IL-17F (human, UniProt Q96PD4 31-163).
T8 construct: made in Hek293 cells (GenBank AF384857); also called hIL-17F; hIL17F
T8 sequence: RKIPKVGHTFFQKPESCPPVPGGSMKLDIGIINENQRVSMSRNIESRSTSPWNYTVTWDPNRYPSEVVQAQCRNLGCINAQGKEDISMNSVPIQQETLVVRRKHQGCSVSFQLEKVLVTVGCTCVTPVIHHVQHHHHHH
As to the kind of experiment: SPR (Biacore) off-rate.

The target of assay [9] is T9, human IL-17A/F heterodimer (human, UniProt Q16552 24-155; Q96PD4 31-163, limits assumed).
T9 construct: bought, made in E. coli (R&D Systems 5194-IL/CF); also called hIL-17A/F; hIL17A/F
T9 sequence (Q16552 24-155 limits assumed, chain 1 of 2, one chain of several): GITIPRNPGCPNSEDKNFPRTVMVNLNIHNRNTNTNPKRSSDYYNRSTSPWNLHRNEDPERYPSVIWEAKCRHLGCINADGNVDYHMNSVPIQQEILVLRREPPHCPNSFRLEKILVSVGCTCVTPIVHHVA
The experiment in a line: SPR (Biacore) off-rate.

For assay [10], the target named is T8, human IL-17F. As to the kind of experiment: AlphaScreen hIL-17F-IL-17RC; vs IL17MS13E02. (In general: In Alpha technology, singlet oxygen from a donor bead excites a nearby acceptor bead.)
Assay [11] concerns the target T7, human IL-17A. The experiment in a line: SPR (Biacore) off-rate. The source holds these as a separate data set.
The target in assay [12] is T8, human IL-17F. As to the kind of experiment: SPR (Biacore) off-rate. This is another data set of the same source.
In assay [13] the target is T9, human IL-17A/F heterodimer. The experiment in a line: SPR (Biacore) off-rate. The source holds these as a separate data set.

B1: 03C07 (VHH)
VHH: EVQLVESGGGLVQAGGSLRLSCAASGFTFDDYAIGWFRQAPGKEREAVSCFSSSDGSIYYADSVKGRFTISSDNAKNTVYLQMNSLKPEDTAVYYCAGGGGSYYYTQLNYCYDMDYWGKGTQVTVSS
notes: Class 2
For B1, the binding result in assay [1] is listed as “no binding (tested: 250 nM)”; in assay [2], “no binding (tested: 250 nM)”; in assay [3] it was “no binding”; in assay [4], “no binding”; in assay [5], “no binding”; in assay [6] it was “no binding”.

B2: 02A08 (VHH)
VHH: EVQLVESGGGVVQPGGSLRLSCADSERSFSFNAMGWFRQAPGKEREFVAAISATGDDTYYADSVKGRFAISRDTARNTVYLQMNSLKPEDTAVYYCGARVNFDGTVSYTNDYAYWGQGTQVTVSS
notes: Class 2
For the molecule B2, the binding result is listed as “no binding (tested: 250 nM)” in [1]; “no binding (tested: 250 nM)” in assay [2]; “no binding” in assay [3]; “no binding” in assay [4]; “no binding” in [5]; “no binding” in assay [6].

B3: 09G10 (VHH)
VHH: EVQLVESGGGLVQAGGSLRLSCAASDSVFTAKAVGWYRQPPGLQREWVAIITSGGKTNYADSSVKGRFTVSVDKVKNTVTLQMNSLKPEDTAVYYCYAQWMGRDYWGQGTQVTVSS
notes: Class 2
As to B3, the binding result in assay [1] is recorded as “no binding (tested: 250 nM)”; in assay [2], “no binding (tested: 250 nM)”; in assay [3], “no binding”; in assay [4], “no binding”; in [5], “no binding”; in [6] it was “no binding”.

B4: 11A06 (VHH)
VHH: EVQLVESGGGLVQPGESLRLSCKASGFSLDYYALGWFRQAPGKEREGISCITSSDASAYYTDSVKGRFTISRDNSKNTVYLQMNSLKTEDTAIYYCAAALLTCSSYYDAYTYWGQGTQVTVSS
notes: Class 2
On to B4, for which the binding result in [1] is given as “no binding (tested: 250 nM)”; in assay [2], “no binding (tested: 250 nM)”; in [3], “no binding”; in assay [4] it was “no binding”; in [5] it was “no binding”; in [6], “no binding”.

B5: IL17MS3038 (VHH)
VHH: EVQLVESGGGLVQAGGSLRLSCAASGRTYDAVGWLRQAPGKEREFVAAISGSGDDTYYADSVKGRFTISKDNAGITMYLQMNSLKPEDTAVYYCATRRGLYYVWDSNDYENWGQGTQVTVSS
notes: variant of IL17MS13E02; Kabat numbering
One may read the koff as a measure of how fast the partners let go of each other. Low values mean a long-lived complex, high ones a short-lived complex. As to B5, the koff was determined as 0.000225 s⁻¹ in assay [7], 0.0101 s⁻¹ in [8] and 6.82e-05 s⁻¹ in assay [9]. The “IC50 fold difference vs WT” value in assay [10] is 3.2 fold.

B6: IL17MS3039 (VHH)
VHH: EVQLVESGGGLVQAGGSLRLSCAASGRTYDAMGWLRQAPGKEREFVAAISGSGDDTYYADSVKGRFTISKDNAGITVYLQMNSLKPEDTAVYYCATRRGLYYVWDSNDYENWGQGTQVTVSS
notes: as for B5
With B6, the figures for the koff in [7], in assay [8] and in [9] were 0.00021 s⁻¹, 0.00515 s⁻¹ and 4.03e-05 s⁻¹, respectively. The “IC50 fold difference vs WT” value in assay [10] amounted to 1.25 fold.

B7: 04G01 (VHH)
VHH: EVQLVESGGGLVQAGGSQRLSCTASGTIVNIHVMGWYRQAPGKQRELVALIFSGGSADYADSVKGRFTISRDNAKNTVYLEMNSLKAEDTAVYYCAAEIGYYSGGTYYSSEAHWGQGTQVTVSS
notes: Class 2; also called IL17MS04G01; 04G1
For the molecule B7, the binding result is “no binding (tested: 250 nM)” in [1]; “no binding (tested: 250 nM)” in assay [2]; “no binding” in assay [3]; “no binding” in [4]; “no binding” in assay [5]; “no binding” in [6].

B8: IL17MS3046 (VHH)
VHH: EVQLVESGGGSVQPGDSLRLSCAASGRANSINWFGWFRQTPGKEREFVAGIRWSDAYTEYAASVKGRFTISRDNSKNTVDLQMDSLRPEDTAVYYCVLDLSTVRYWGQGTLVTVSS
notes: variant of IL17MS13B03; Kabat numbering
With B8, the off-rate constant (koff) in assay [11] worked out at 0.000281 s⁻¹; in [12], 0.00848 s⁻¹; in [13], 0.000515 s⁻¹.

B9: IL17MS3049 (VHH)
VHH: EVQLVESGGGSVQPGDSLRLSCAASGRANSINWFGWFRQAPGKEREFVAGIRWSDAYTEYANSVKGRFTISRDNSKNTVYLQMDSLRPEDTAVYYCVLDLSTVRYWGQGTLVTVSS
notes: as for B8
For B9, the koff is 0.00015 s⁻¹ in [11], 0.00757 s⁻¹ in assay [12] and 0.000248 s⁻¹ in [13].

B10: IL17MS3050 (VHH)
VHH: EVQLVESGGGSVQPGGSLRLSCAASGRANSINWFGWFRQTPGKEREFVAGIRWSDAYTEYANSVKGRFTISRDNSKNTVDLQMDSLRPEDTAVYYCVLDLSTVRYWGQGTLVTVSS
notes: as for B8
B10: the koff in [11] amounted to 0.000267 s⁻¹; in [12] it was 0.00855 s⁻¹; in [13] it was 0.000575 s⁻¹.

B11: IL17MS3048 (VHH)
VHH: EVQLVESGGGSVQPGDSLRLSCAASGRANSINWFGWFRQTPGKEREFVAGIRWSDAYTEYANSVKGRFTISRDNSKNTVDLQMNSLRPEDTAVYYCVLDLSTVRYWGQGTLVTVSS
notes: as for B8
As to B11, the koff in assay [11] was found to be 0.000295 s⁻¹; in assay [12], 0.00874 s⁻¹; in assay [13], 0.000665 s⁻¹.

B12: 04B09 (VHH)
VHH: EVQLVESGGGLVQPGGSLRLSCAASGFTLGYYAIGWFRQAPGKEREGVSCDSSSDGDTYYANSVKGRFTISTDNGKNTVYLQMNSLKPEDTAVYYCATCTDWNYDYWGQGTQVTVSS
notes: Class 2; also called 04B9
For B12, the binding result in assay [1] was “no binding (tested: 250 nM)”; in assay [2], “no binding (tested: 250 nM)”; in [3], “no binding”; in [4] it was “no binding”; in assay [5] it was “no binding”; in [6], “no binding”.
